Experimental data published in patent US20200277369A1 (Novartis, published 2020).

Target: T1, human homodimer IL-17A (human, UniProt Q16552 24-155)
T1 construct: Homodimer as printed; also called interleukin-17A
Assay: not stated (affinity given in running text of Example 1, no method)

T1 sequence (Q16552 24-155 limits assumed): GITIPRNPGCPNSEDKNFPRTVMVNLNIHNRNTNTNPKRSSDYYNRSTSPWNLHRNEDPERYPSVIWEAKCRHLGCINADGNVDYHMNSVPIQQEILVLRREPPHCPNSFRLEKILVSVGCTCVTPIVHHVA

Kd: 6 pM
B1: CJM112 (antibody, V domains shown)
VH: EVQLVESGGDLVQPGGSLRLSCAASGFTFSSYWMSWVRQAPGKGLEWVANIKQDGSEKYYVDSVKGRFTISRDNAKNSLYLQMNSLRAEDTAVYYCARDRGSLYYWGQGTLVTVSS
VL: AIQLTQSPSSLSASVGDRVTITCRPSQGINWELAWYQQKPGKAPKLLIYDASSLEQGVPSRFSGSGSGTDFTLTISSLQPEDFATYYCQQFNSYPLTFGGGTKVEIK
